T1: PUF4 RNA-binding domain (Saccharomyces cerevisiae, UniProt P25339 537-888)
T1 sequence: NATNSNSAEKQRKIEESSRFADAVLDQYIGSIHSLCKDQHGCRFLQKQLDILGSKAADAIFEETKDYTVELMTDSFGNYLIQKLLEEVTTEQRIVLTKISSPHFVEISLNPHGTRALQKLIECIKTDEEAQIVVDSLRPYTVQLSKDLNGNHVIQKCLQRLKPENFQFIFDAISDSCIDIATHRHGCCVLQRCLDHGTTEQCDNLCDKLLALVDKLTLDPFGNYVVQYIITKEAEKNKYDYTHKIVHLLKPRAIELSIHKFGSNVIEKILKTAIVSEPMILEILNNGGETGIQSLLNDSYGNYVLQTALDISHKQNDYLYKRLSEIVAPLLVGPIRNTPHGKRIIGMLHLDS


Target: T1, PUF4 RNA-binding domain
Test: Mg; RNA-MaP; 20 mM Na-HEPES pH 7.4, 30 mM KOAc, 0.75 mM MgCl2, 0.1% Tween-20, 5% glycerol, 0.1 mg/mL BSA, 2 mM DTT; 25 C; 0.0125-409.6 nM protein
Details: tags: N-His6-TEV cleaved; C-SNAP kept, Cy3B-labelled; label: tethered on chip by stalled RNA polymerase

Row | Binder | Kd [nM]
1 | UCUCUUUGUAAAUCCGUCUCUU (ssRNA) [Ic_S1_P5E.1_K5.1_C5.1_H5.1_A5.1_[T5A]_[T6A]_[A7T]_F5.1_[T8C]_[T9C]_[A10G]_T5.1] | 747
2 | UCUCUUUGUAAUACUUUCUCUU (ssRNA) [Ic_S1_P5E.1_K5.1_C5.1_H5.1_A5.1_[T5A]_F5.1_[T8C]_[A10T]_T5.1] | 212
3 | UCUCUUUGUAUCUCCGUCUCUU (ssRNA) [Ic_S1_P5E.1_K5.1_C5.1_H5.1_A5.1_[T6C]_[A7T]_F5.1_[T8C]_[T9C]_[A10G]_T5.1] | 484
4 | UCUCUUUGUAUGGCUGUCUCUU (ssRNA) [Ic_S1_P5E.1_K5.1_C5.1_H5.1_A5.1_[T6G]_[A7G]_F5.1_[T8C]_[A10G]_T5.1] | 2120
5 | UCUCUUUGUACCUGCCUCUCUU (ssRNA) [Ic_S1_P5E.1_K5.1_C5.1_H5.1_A5.1_[T5C]_[T6C]_[A7T]_F5.1_[T8G]_[T9C]_[A10C]_T5.1] | 353
6 | UCUCUUUGUACUUCUAUCUCUU (ssRNA) [Ic_S1_P5E.1_K5.1_C5.1_H5.1_A5.1_[T5C]_[A7T]_F5.1_[T8C]_T5.1] | 7.77
7 | UCUCUUUGUAUAACCGUCUCUU (ssRNA) [Ic_S1_P5E.1_K5.1_C5.1_H5.1_A5.1_[T6A]_F5.1_[T8C]_[T9C]_[A10G]_T5.1] | 152
8 | UCUCUUUGUACCUGGCUCUCUU (ssRNA) [Ic_S1_P5E.1_K5.1_C5.1_H5.1_A5.1_[T5C]_[T6C]_[A7T]_F5.1_[T8G]_[T9G]_[A10C]_T5.1] | 489
9 | UCUCUUUGUAACAUGCUCUCUU (ssRNA) [Ic_S1_P5E.1_K5.1_C5.1_H5.1_A5.1_[T5A]_[T6C]_F5.1_[T9G]_[A10C]_T5.1] | 13.2
10 | UCUCUUUGUAGCUGUAUCUCUU (ssRNA) [Ic_S1_P5E.1_K5.1_C5.1_H5.1_A5.1_[T5G]_[T6C]_[A7T]_F5.1_[T8G]_T5.1] | 47.8
11 | UCUCUUUGUAUUCGAUUCUCUU (ssRNA) [Ic_S1_P5E.1_K5.1_C5.1_H5.1_A5.1_[A7C]_F5.1_[T8G]_[T9A]_[A10T]_T5.1] | 466
12 | UCUCUUUGUAUUUUUCUCUU (ssRNA) [Ib_S1_P3E.1_K3.1_C3.1_H3.1_A3.1_[A6T]_F3.1_[A8T]_T3.1] | 26.1
13 | UCUCUUUGUAUCUCGCUCUCUU (ssRNA) [Ic_S1_P5E.1_K5.1_C5.1_H5.1_A5.1_[T6C]_[A7T]_F5.1_[T8C]_[T9G]_[A10C]_T5.1] | 160
14 | UCUCUUUGUAUACCGAUCUCUU (ssRNA) [Ic_S1_P5E.1_K5.1_C5.1_H5.1_A5.1_[T6A]_[A7C]_F5.1_[T8C]_[T9G]_T5.1] | 450
15 | UCUCUUUGUAAAUUCUUCUCUU (ssRNA) [Ic_S1_P5E.1_K5.1_C5.1_H5.1_A5.1_[T5A]_[T6A]_[A7T]_F5.1_[T9C]_[A10T]_T5.1] | 20.1
16 | UCUCUUUGUAAGCCAUUCUCUU (ssRNA) [Ic_S1_P5E.1_K5.1_C5.1_H5.1_A5.1_[T5A]_[T6G]_[A7C]_F5.1_[T8C]_[T9A]_[A10T]_T5.1] | 317

Row | Binder | Kd [nM]
17 | UCUCUUUGUAUAUGAUUCUCUU (ssRNA) [Ic_S1_P5E.1_K5.1_C5.1_H5.1_A5.1_[T6A]_[A7T]_F5.1_[T8G]_[T9A]_[A10T]_T5.1] | 12.1
18 | UCUCUUUGUACUACACUCUCUU (ssRNA) [Ic_S1_P5E.1_K5.1_C5.1_H5.1_A5.1_[T5C]_F5.1_[T8C]_[T9A]_[A10C]_T5.1] | 455
19 | UCUCUUUGUACGUGCCUCUCUU (ssRNA) [Ic_S1_P5E.1_K5.1_C5.1_H5.1_A5.1_[T5C]_[T6G]_[A7T]_F5.1_[T8G]_[T9C]_[A10C]_T5.1] | 583
20 | UCUCUUUGUACUCCACUCUCUU (ssRNA) [Ic_S1_P5E.1_K5.1_C5.1_H5.1_A5.1_[T5C]_[A7C]_F5.1_[T8C]_[T9A]_[A10C]_T5.1] | 500
21 | UCUCUUUGUAUGUCUCUCUU (ssRNA) [Ic_S1_P3E.1_K3.1_C3.1_H3.1_A3.1_[A6G]_F3.1_[A8C]_T3.1] | 677
22 | UCUCUUUGUAGCAGCUUCUCUU (ssRNA) [Ic_S1_P5E.1_K5.1_C5.1_H5.1_A5.1_[T5G]_[T6C]_F5.1_[T8G]_[T9C]_[A10T]_T5.1] | > 2300
23 | UCUCUUUGUACGUCACUCUCUU (ssRNA) [Ic_S1_P5E.1_K5.1_C5.1_H5.1_A5.1_[T5C]_[T6G]_[A7T]_F5.1_[T8C]_[T9A]_[A10C]_T5.1] | 580
24 | UCUCUUUGUAAACCUCUCUCUU (ssRNA) [Ic_S1_P5E.1_K5.1_C5.1_H5.1_A5.1_[T5A]_[T6A]_[A7C]_F5.1_[T8C]_[A10C]_T5.1] | 548
25 | UCUCUUUGUAAACGCUUCUCUU (ssRNA) [Ic_S1_P5E.1_K5.1_C5.1_H5.1_A5.1_[T5A]_[T6A]_[A7C]_F5.1_[T8G]_[T9C]_[A10T]_T5.1] | 854
26 | UCUCUUUGUAUCCGUGUCUCUU (ssRNA) [Ic_S1_P5E.1_K5.1_C5.1_H5.1_A5.1_[T6C]_[A7C]_F5.1_[T8G]_[A10G]_T5.1] | 1060
27 | UCUCUUUGUAUCUUUCUCUU (ssRNA) [Ic_S1_P3E.1_K3.1_C3.1_H3.1_A3.1_[A6C]_F3.1_[A8T]_T3.1] | 32.3
28 | UCUCUUUGUAUUUCUCUCUU (ssRNA) [Ic_S1_P3E.1_K3.1_C3.1_H3.1_A3.1_[A6T]_F3.1_[A8C]_T3.1] | 111
29 | UCUCUUUGUAGCGUUAUCUCUU (ssRNA) [Ic_S1_P5E.1_K5.1_C5.1_H5.1_A5.1_[T5G]_[T6C]_[A7G]_F5.1_T5.1] | 36.4
30 | UCUCUUUGUAUUCCCAUCUCUU (ssRNA) [Ic_S1_P5E.1_K5.1_C5.1_H5.1_A5.1_[A7C]_F5.1_[T8C]_[T9C]_T5.1] | 587
31 | UCUCUUUGUAAAAUUUUCUCUU (ssRNA) [Ic_S1_P5E.1_K5.1_C5.1_H5.1_A5.1_[T5A]_[T6A]_F5.1_[A10T]_T5.1] | 23.8
32 | UCUCUUUGUAUCGCCGUCUCUU (ssRNA) [Ic_S1_P5E.1_K5.1_C5.1_H5.1_A5.1_[T6C]_[A7G]_F5.1_[T8C]_[T9C]_[A10G]_T5.1] | > 2300

— paper PMC9352680, “A comprehensive thermodynamic model for RNA binding by the Saccharomyces cerevisiae Pumilio protein PUF4”
